According to the array DNA melting data of Ke et al.:

Test: melting temperature; melt of duplexes
Settings: sodium 0.0675 M; strand 1 µM

| Substance | Tm [°C] |
| --- | --- |
| CGACGTGCAAGATGTGCTG+CAGCACATTCAGCACGTCG ((((((((...((((((((+))))))))...)))))))) | 50.7 |
| CGACGTGCAAAATGTGCTG+CAGCACATGTTGCACGTCG ((((((((((.((((((((+)))))))).)))))))))) | 56.4 |
| CGACGTGCTCGATGTGCTG+CAGCACATCGGGCACGTCG ((((((((.((((((((((+)))))))))).)))))))) | 62.2 |
| CGACGTGCGACATGTGCTG+CAGCACATTCGGCACGTCG ((((((((...((((((((+))))))))...)))))))) | 51.9 |
| CGACGTGCTCGATGTGCTG+CAGCACATCGTGCACGTCG ((((((((.((((((((((+)))))))))).)))))))) | 59 |
| CGACGTGCTCAATGTGCTG+CAGCACATGGAGCACGTCG ((((((((((.((((((((+)))))))).)))))))))) | 59.5 |
| CGACGTGCATCATGTGCTG+CAGCACATCGGGCACGTCG ((((((((...((((((((+))))))))...)))))))) | 47.9 |
| CGACGTGCCTCATGTGCTG+CAGCACATGAGGCACGTCG (((((((((((((((((((+))))))))))))))))))) | 65.8 |
| CGACGTGCTTCATGTGCTG+CAGCACATCGGGCACGTCG ((((((((...((((((((+))))))))...)))))))) | 48.9 |
| CGACGTGCTGCATGTGCTG+CAGCACATTCTGCACGTCG ((((((((.(.((((((((+)))))))).).)))))))) | 51.8 |
| CGACGTGCGGTATGTGCTG+CAGCACATATGGCACGTCG ((((((((..(((((((((+)))))))))..)))))))) | 54 |
| CGACGTGCACAATGTGCTG+CAGCACATCGTGCACGTCG ((((((((((.((((((((+)))))))).)))))))))) | 53 |
| CGACGTGCCGTATGTGCTG+CAGCACATTGAGCACGTCG ((((((((...((((((((+))))))))...)))))))) | 49.8 |
| CGACGTGCACCATGTGCTG+CAGCACATTGCGCACGTCG ((((((((.(.((((((((+)))))))).).)))))))) | 46.9 |
| CGACGTGCCTCATGTGCTG+CAGCACATACTGCACGTCG ((((((((...((((((((+))))))))...)))))))) | 47 |
| CGACGTGCTTTATGTGCTG+CAGCACATGGCGCACGTCG ((((((((...((((((((+))))))))...)))))))) | 47.2 |
| CGACGTGCGTGATGTGCTG+CAGCACATGATGCACGTCG ((((((((.(.((((((((+)))))))).).)))))))) | 54 |
| CGACGTGCAGAATGTGCTG+CAGCACATCCGGCACGTCG ((((((((.(.((((((((+)))))))).).)))))))) | 52.7 |

| Substance | Tm [°C] |
| --- | --- |
| CGACGTGCGCCATGTGCTG+CAGCACATAGTGCACGTCG ((((((((.(.((((((((+)))))))).).)))))))) | 49 |
| CGACGTGCGATATGTGCTG+CAGCACATCAAGCACGTCG ((((((((...((((((((+))))))))...)))))))) | 52.1 |
| CGACGTGCGTGATGTGCTG+CAGCACATCTTGCACGTCG ((((((((..(((((((((+)))))))))..)))))))) | 55.6 |
| CGACGTGCTTCATGTGCTG+CAGCACATGCTGCACGTCG ((((((((..(((((((((+)))))))))..)))))))) | 53.1 |
| CGACGTGCCAAATGTGCTG+CAGCACATATGGCACGTCG ((((((((((.((((((((+)))))))).)))))))))) | 56.9 |
| CGACGTGCTGAATGTGCTG+CAGCACATAATGCACGTCG ((((((((...((((((((+))))))))...)))))))) | 51 |
| CGACGTGCTTAATGTGCTG+CAGCACATCGGGCACGTCG ((((((((...((((((((+))))))))...)))))))) | 49.1 |
| CGACGTGCGGAATGTGCTG+CAGCACATCGAGCACGTCG ((((((((...((((((((+))))))))...)))))))) | 54.6 |
| CGACGTGCAACATGTGCTG+CAGCACATGAAGCACGTCG ((((((((..(((((((((+)))))))))..)))))))) | 54.3 |
| CGACGTGCTCTATGTGCTG+CAGCACATCGTGCACGTCG ((((((((.(.((((((((+)))))))).).)))))))) | 45.2 |
| CGACGTGCCCCATGTGCTG+CAGCACATCTAGCACGTCG ((((((((...((((((((+))))))))...)))))))) | 47.3 |
| CGACGTGCTCAATGTGCTG+CAGCACATTAAGCACGTCG (((((((((.(((((((((+))))))))).))))))))) | 54.4 |
| CGACGTGCAAGATGTGCTG+CAGCACATATGGCACGTCG ((((((((.(.((((((((+)))))))).).)))))))) | 53 |
| CGACGTGCGTGATGTGCTG+CAGCACATTACGCACGTCG ((((((((((.((((((((+)))))))).)))))))))) | 60.4 |
| CGACGTGCTGCATGTGCTG+CAGCACATACTGCACGTCG ((((((((.(.((((((((+)))))))).).)))))))) | 53 |
| CGACGTGCGAGATGTGCTG+CAGCACATAGGGCACGTCG ((((((((...((((((((+))))))))...)))))))) | 50.7 |
| CGACGTGCAGGATGTGCTG+CAGCACATCCCGCACGTCG ((((((((.((((((((((+)))))))))).)))))))) | 59 |
| CGACGTGCCAGATGTGCTG+CAGCACATTAGGCACGTCG (((((((((..((((((((+))))))))..))))))))) | 56.2 |
